According to US20100222256A1:

Target: CXCR4 ligand
Assay: cell-based or functional assay

## T140 (peptide)
  EC50 (nM): anti-HIV activity, concentration where MT-4 cell death by HIV-1 (IIIB) infection is inhibited by 50% (MTT method): 3.3 nM
